The values below are quoted from earlier work in article PMC8509922.

The target in data set [1] is BmpR1 (Homo sapiens) (UniProt P36894).
In data set [2] the target is Acvr1 (Homo sapiens) (UniProt Q04771).
For data set [3], the target named is BmpR1 (Homo sapiens) (UniProt P36894). This is another data set of the same source.
Data set [4] has as its target Acvr1 (Homo sapiens) (UniProt Q04771). This is another data set of the same source.

Values joined by “and” are separate entries in the source; they are usually repeats but may differ in a detail not shown here. Equal values may be shown once. Read-outs that look alike come from different tables or passages of the source.

Chain of UniProt Q04771 (Q04771 21-123): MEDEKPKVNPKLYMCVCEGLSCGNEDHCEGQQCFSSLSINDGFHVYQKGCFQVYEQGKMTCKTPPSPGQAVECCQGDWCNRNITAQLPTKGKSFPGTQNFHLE
Chain of UniProt P36894 (P36894 24-152): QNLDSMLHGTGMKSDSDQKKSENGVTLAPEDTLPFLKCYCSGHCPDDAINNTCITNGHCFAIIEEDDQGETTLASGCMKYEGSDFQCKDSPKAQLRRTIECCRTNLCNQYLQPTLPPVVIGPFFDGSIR

Bmp2 (from UniProt P12643): the Kd with BmpR1 (Homo sapiens) [1] was 0.0008 µM.

Regarding “Bmp2/7 heterodimer (from UniProt P12643)”, in the data set with Acvr1 (Homo sapiens) [2], the Kd is 0.512 µM and 1.02 µM.

On to Bmp7 (from UniProt P18075), for which the figures for the Kd with BmpR1 (Homo sapiens) [3] and with Acvr1 (Homo sapiens) [4] were 0.056 µM and 0.5 µM, respectively.
